The assay addresses murine protein S (mouse) (UniProt Q08761). Nature of the assay: cell-based or functional assay.

From US11723913 come the findings set out here.

UniProt Q08761, sequence (Q08761 42-675 limits assumed): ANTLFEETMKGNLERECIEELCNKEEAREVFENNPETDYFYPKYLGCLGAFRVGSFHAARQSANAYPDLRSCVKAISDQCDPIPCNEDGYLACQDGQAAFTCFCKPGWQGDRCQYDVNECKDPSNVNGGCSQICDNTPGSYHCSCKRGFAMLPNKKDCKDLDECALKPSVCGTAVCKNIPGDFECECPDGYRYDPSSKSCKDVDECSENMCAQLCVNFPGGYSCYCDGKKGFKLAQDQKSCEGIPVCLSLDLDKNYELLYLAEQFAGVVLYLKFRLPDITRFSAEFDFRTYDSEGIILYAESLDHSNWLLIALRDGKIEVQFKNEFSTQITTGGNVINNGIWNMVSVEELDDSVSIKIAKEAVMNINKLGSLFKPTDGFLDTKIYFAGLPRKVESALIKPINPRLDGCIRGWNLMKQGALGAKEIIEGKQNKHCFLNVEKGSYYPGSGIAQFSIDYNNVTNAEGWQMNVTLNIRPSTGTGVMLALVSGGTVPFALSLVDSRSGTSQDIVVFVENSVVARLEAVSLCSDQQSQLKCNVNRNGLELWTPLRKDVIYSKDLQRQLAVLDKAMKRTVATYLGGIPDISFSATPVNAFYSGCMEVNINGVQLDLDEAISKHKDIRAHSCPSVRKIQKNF

“mutated recombinant mouse APC (rmAPC L38D) (from UniProt P33587 42-460)” came in with a reduction of ETP in Ca2+ ionophore-activated PRP of WT mice at 8 nM APC of 30%.

“wild type recombinant mouse APC (wt-rmAPC) (from UniProt P33587 42-460)” showed a reduction of ETP in Ca2+ ionophore-activated PRP of WT mice at 8 nM APC of 90%.
